1 molecule from patent publication US20120122128A1 (ALLERGAN, published 2012) can be followed below.

The target in the assay is T1, SNAP-25206 uncleaved substrate in PC12 cells (rat (PC12 cell line), UniProt P60881 1-206, limits assumed).
T1 construct: also called uncleaved SNAP-25206 substrate; uncleaved SNAP-25
Briefly: immunocytochemistry of PC12 cells +/- GFP-BoNT/A-LC, ascites 1:10.

T1 sequence (P60881 whole entry): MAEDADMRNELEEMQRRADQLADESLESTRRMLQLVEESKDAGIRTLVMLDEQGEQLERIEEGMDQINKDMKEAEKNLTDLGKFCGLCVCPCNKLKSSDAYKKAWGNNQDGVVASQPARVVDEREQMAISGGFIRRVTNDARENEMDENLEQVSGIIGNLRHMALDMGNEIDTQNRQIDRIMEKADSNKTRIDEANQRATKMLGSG

B1: α-SNAP-25 monoclonal antibody 3C1A5 (antibody, V domains shown)
VH: VKLQESGAELVKPGASVKISCKASGYTFTDHSIHWVKQKPGQGLEWIGYLFPGNGNFEYNEKFKGKATLTADKSSSTVYMYLNSLTSEDSAVYFCKRMGYWGQGTTVTVSS
VL: DIKMTQSPSSMYASLGERVTITCKASQDIKSYLSWYQQKPWKSPKTLIYYATSLADGVPSRFSGSGSGQDYSLTISSLESDDTATYYCLQHGESPFTFGSGTKLEIKR
With B1, the binding result is given as “no binding”.
